T1: recombinant human serpin B1, wild type (C344) (human, UniProt P30740 1-379)
T1 construct: serpin B1, human, recombinant, wild type (C344); non-glycosylated, 42 kDa by the discussion; also called rhsB1; sB1; source: yeast S. cerevisiae, purified
T1 sequence (looked up): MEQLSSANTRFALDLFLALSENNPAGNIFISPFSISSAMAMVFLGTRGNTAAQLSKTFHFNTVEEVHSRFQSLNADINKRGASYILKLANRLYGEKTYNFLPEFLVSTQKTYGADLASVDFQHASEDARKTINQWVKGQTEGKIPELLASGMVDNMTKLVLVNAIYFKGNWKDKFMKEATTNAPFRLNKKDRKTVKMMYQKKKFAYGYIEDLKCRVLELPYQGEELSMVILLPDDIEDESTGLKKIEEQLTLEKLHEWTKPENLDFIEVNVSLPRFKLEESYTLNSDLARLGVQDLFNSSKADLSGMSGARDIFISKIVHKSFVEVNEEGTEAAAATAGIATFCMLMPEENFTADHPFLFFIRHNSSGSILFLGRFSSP


Target: T1, recombinant human serpin B1, wild type …
Assay: formation of SDS- and heat-stable serpin-protease complexes, SDS-PAGE; 2 uL of hNE, hPR3 or hCG (23.4 uM each) mixed with each sB1 protein at 1:1 molar ratio in 20 uL PBS, pH 7.4, 15 min; stopped with protease inhibitor mix; reducing sample buffer, heated, SDS-PAGE
Conditions: both partners purified

Row | binding result | Binder
1 | binds | proteinase 3 (enzyme, human, UniProt P24158 28-248, looked up, hPR3, neutrophil serine protease; also called hPR3; PR3; source: bought: Athens Research and Technology) IVGGHEAQPHSRPYMASLQMRGNPGSHFCGGTLIHPSFVLTAAHCLRDIPQRLVNVVLGAHNVRTQEPTQQHFSVAQVFLNNYDAENKLNDVLLIQLSSPANLSASVATVQLPQQDQPVPHGTQCLAMGWGRVGAHDPPAQVLQELNVTVVTFFCRPHNICTFVPRRKAGICFGDSGGPLICDGIIQGIDSFVIWGCATRLFPDFFTRVALYVDWIRSTLR
2 | binds | cathepsin G (enzyme, human, UniProt P08311 21-244, looked up, cathepsin G (hCG), neutrophil serine protease; also called hCG; Cat G; source: bought: Athens Research and Technology) IIGGRESRPHSRPYMAYLQIQSPAGQSRCGGFLVREDFVLTAAHCWGSNINVTLGAHNIQRRENTQQHITARRAIRHPQYNQRTIQNDIMLLQLSRRVRRNRNVNPVALPRAQEGLRPGTLCTVAGWGRVSMRRGTDTLREVQLRVQRDRQCLRIFGSYDPRRQICVGDRRERKAAFKGDSGGPLLCNNVAHGIVSYGKSSGVPPEVFTRVSSFLPWIRTTMRS
